# Measured values taken from patent publication US20240301049A1 (Ablynx, published 2024).
# T1: cyno IL-6 (cynomolgus monkey, UniProt P79341 28-212, limits assumed)
# T1 sequence (looked up): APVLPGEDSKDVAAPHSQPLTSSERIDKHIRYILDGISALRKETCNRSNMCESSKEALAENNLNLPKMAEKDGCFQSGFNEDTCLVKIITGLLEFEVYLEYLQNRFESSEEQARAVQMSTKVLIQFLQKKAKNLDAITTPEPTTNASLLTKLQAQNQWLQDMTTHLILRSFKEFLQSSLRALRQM
# B1: F027201029 (bispecific antibody)
# chain: EVQLVESGGGVVQPGGSLRLSCTASGFTFSTADMGWFRQAPGKGREFVARISGIDGTTYYDEPVKGRFTISRDNSKNTVYLQMNSLRPEDTALYYCRSPRYADQWSAYDYWGQGTLVKVSSGGGGSGGGSDVQLVESGGGVVQPGGSLRLSCAASGRTFSNYAMAWFRQAPGKEREFVAVISYAGGRTYYADSVKGRFTISRDNAKNTVYLQMNSLRPEDTALYYCAAVDSPLIATHPRGYDYWGQGTLVTVSSGGGGSGGGSEVQLVESGGGVVQPGGSLRLSCAASGFTFRSFGMSWVRQAPGKGPEWVSSISGSGSDTLYADSVKGRFTISRDNSKNTLYLQMNSLRPEDTALYYCTIGGSLSRSSQGTLVTVSSGGGGSGGGSEVQLVESGGGVVQPGGSLRLSCAASGIIFSINAMGWYRQAPGKQRELVADIFPFGSTEYADSVKGRFTISRDNAKNTVYLQMNSLRPEDTALYYCHSYDPRGDDYWGQGTLVTVSS
# B2: F027200809 (bispecific antibody)
# chain: EVQLVESGGGVVQPGGSLRLSCTASGFTFSTADMGWFRQAPGKGREFVARISGIDGTTYYDEPVKGRFTISRDNSKNTVYLQMNSLRPEDTALYYCRSPRYADQWSAYDYWGQGTLVKVSSGGGGSGGGSDVQLVESGGGVVQPGGSLRLSCAASGRTFSNYAMAWFRQAPGKEREFVAVISYAGGRTYYADSVKGRFTISRDNAKNTVYLQMNSLRPEDTALYYCAAVDSPLIATHPRGYDYWGQGTLVTVSSGGGGSGGGSEVQLVESGGGVVQPGGSLRLSCAASGFTFRSFGMSWVRQAPGKGPEWVSSISGSGSDTLYADSVKGRFTISRDNSKNTLYLQMNSLRPEDTALYYCTIGGSLSRSSQGTLVTVSSGGGGSGGGSEVQLVESGGGVVQPGGSLRLSCAASGFSLDYYGVGWFRQAPGKEREGVSCISSSEGDTYYADSVKGRFTISRDNAKNTVYLQMNSLRPEDTALYYCATDLSDYGVCSRWPSPYDYWGQGTLVKVSS
# B3: F027200812 (bispecific antibody)
# chain: DVQLVESGGGVVQPGGSLRLSCAASGRTFSNYAMAWFRQAPGKEREFVAVISYAGGRTYYADSVKGRFTISRDNAKNTVYLQMNSLRPEDTALYYCAAVDSPLIATHPRGYDYWGQGTLVTVSSGGGGSGGGSEVQLVESGGGVVQPGGSLRLSCAASGFTFRSFGMSWVRQAPGKGPEWVSSISGSGSDTLYADSVKGRFTISRDNSKNTLYLQMNSLRPEDTALYYCTIGGSLSRSSQGTLVTVSSGGGGSGGGSEVQLVESGGGVVQPGGSLRLSCAASGFSLDYYGVGWFRQAPGKEREGVSCISSSEGDTYYADSVKGRFTISRDNAKNTVYLQMNSLRPEDTALYYCATDLSDYGVCSRWPSPYDYWGQGTLVKVSSGGGGSGGGSEVQLVESGGGVVQPGGSLRLSCTASGFTFSTADMGWFRQAPGKGREFVARISGIDGTTYYDEPVKGRFTISRDNSKNTVYLQMNSLRPEDTALYYCRSPRYADQWSAYDYWGQGTLVKVSS
# B4: F027200925 (bispecific antibody)
# chain: DVQLVESGGGVVQPGGSLRLSCTASGFTFSTADMGWFRQAPGKGREFVARISGIDGTTYYDEPVKGRFTISRDNSKNTVYLQMNSLRPEDTALYYCRSPRYADQWSAYDYWGQGTLVTVSSGGGGSGGGSEVQLVESGGGVVQPGGSLRLSCAASGIIFSINAMGWYRQAPGKQRELVADIFPFGSTEYADSVKGRFTISRDNAKNTVYLQMNSLRPEDTALYYCHSYDPRGDDYWGQGTLVTVSSGGGGSGGGSEVQLVESGGGVVQPGGSLRLSCAASGFTFRSFGMSWVRQAPGKGPEWVSSISGSGSDTLYADSVKGRFTISRDNSKNTLYLQMNSLRPEDTALYYCTIGGSLSRSSQGTLVTVSSGGGGSGGGSEVQLVESGGGVVQPGGSLRLSCAASGRTFSSYVMGWFRQAPGKEREFVSTINWAGSRGYYADSVKGRFTISRDNAKNTVYLQMNSLRPEDTALYYCAASAGGFLVPRVGQGYDYWGQGTLVKVSSA
# B5: F027201060 (bispecific antibody)
# chain: EVQLVESGGGVVQPGGSLRLSCAASGFTLAYYAIGWFRQAPGKEREGVSCISGSVGTTYYADSVKGRFTISRDNAKNTVYLQMNSLRPEDTALYYCVRSSWFDCGVQGRDLGNEYDYRGQGTLVTVSSGGGGSGGGSEVQLVESGGGVVQPGGSLRLSCAASGFTFRSFGMSWVRQAPGKGPEWVSSISGSGSDTLYADSVKGRFTISRDNSKNTLYLQMNSLRPEDTALYYCTIGGSLSRSSQGTLVTVSSGGGGSGGGSEVQLVESGGGVVQPGGSLRLSCAASGFSLDYYGVGWFRQAPGKEREGVSCISSSEGDTYYADSVKGRFTISRDNAKNTVYLQMNSLRPEDTALYYCATDLSDYGVCSRWPSPYDYWGQGTLVKVSSGGGGSGGGSEVQLVESGGGVVQPGGSLRLSCTASGFTFSTADMGWFRQAPGKGREFVARISGIDGTTYYDEPVKGRFTISRDNSKNTVYLQMNSLRPEDTALYYCRSPRYADQWSAYDYWGQGTLVKVSS
# B6: F027200157 (bispecific antibody)
# chain: EVQLVESGGGVVQPGGSLRLSCTASGFTFSTADMGWFRQAPGKGREFVARISGIDGTTYYDEPVKGRFTISRDNSKNTVYLQMNSLRPEDTALYYCRSPRYADQWSAYDYWGQGTLVKVSSGGGGSGGGSEVQLVESGGGVVQPGGSLRLSCAASGFTFRSFGMSWVRQAPGKGPEWVSSISGSGSDTLYADSVKGRFTISRDNSKNTLYLQMNSLRPEDTALYYCTIGGSLSRSSQGTLVTVSSGGGGSGGGSEVQLVESGGGVVQPGGSLRLSCAASGIIFSINAMGWYRQAPGKQRELVADIFPFGSTEYADSVKGRFTISRDNAKNTVYLQMNSLRPEDTALYYCHSYDPRGDDYWGQGTLVTVSSGGGGSGGGSEVQLVESGGGVVQPGGSLRLSCAASGFTLAYYAIGWFRQAPGKEREGVSCISGSVGTTYYADSVKGRFTISRDNAKNTVYLQMNSLRPEDTALYYCVRSSWFDCGVQGRDLGNEYDYRGQGTLVTVSS
# B7: F027200166 (bispecific antibody)
# chain: EVQLVESGGGVVQPGGSLRLSCAASGIIFSINAMGWYRQAPGKQRELVADIFPFGSTEYADSVKGRFTISRDNAKNTVYLQMNSLRPEDTALYYCHSYDPRGDDYWGQGTLVTVSSGGGGSGGGSEVQLVESGGGVVQPGGSLRLSCAASGFTLAYYAIGWFRQAPGKEREGVSCISGSVGTTYYADSVKGRFTISRDNAKNTVYLQMNSLRPEDTALYYCVRSSWFDCGVQGRDLGNEYDYRGQGTLVTVSSGGGGSGGGSEVQLVESGGGVVQPGGSLRLSCAASGFTFRSFGMSWVRQAPGKGPEWVSSISGSGSDTLYADSVKGRFTISRDNSKNTLYLQMNSLRPEDTALYYCTIGGSLSRSSQGTLVTVSSGGGGSGGGSEVQLVESGGGVVQPGGSLRLSCTASGFTFSTADMGWFRQAPGKGREFVARISGIDGTTYYDEPVKGRFTISRDNSKNTVYLQMNSLRPEDTALYYCRSPRYADQWSAYDYWGQGTLVKVSS
# B8: F027200929 (bispecific antibody)
# chain: EVQLVESGGGVVQPGGSLRLSCAASGRTFSSYVMGWFRQAPGKEREFVSTINWAGSRGYYADSVKGRFTISRDNAKNTVYLQMNSLRPEDTALYYCAASAGGFLVPRVGQGYDYWGQGTLVTVSSGGGGSGGGSEVQLVESGGGVVQPGGSLRLSCAASGFTFRSFGMSWVRQAPGKGPEWVSSISGSGSDTLYADSVKGRFTISRDNSKNTLYLQMNSLRPEDTALYYCTIGGSLSRSSQGTLVTVSSGGGGSGGGSEVQLVESGGGVVQPGGSLRLSCAASGFSLDYYGVGWFRQAPGKEREGVSCISSSEGDTYYADSVKGRFTISRDNAKNTVYLQMNSLRPEDTALYYCATDLSDYGVCSRWPSPYDYWGQGTLVKVSSGGGGSGGGSEVQLVESGGGVVQPGGSLRLSCTASGFTFSTADMGWFRQAPGKGREFVARISGIDGTTYYDEPVKGRFTISRDNSKNTVYLQMNSLRPEDTALYYCRSPRYADQWSAYDYWGQGTLVKVSS
# Target: T2, human IL-6 (human, UniProt P05231 30-212)
# Assay: cell-based or functional assay
Ratio IC50 reference anti-IL-6 mAb1/Nb [ratio],"hIL-6 TF1 proliferation assay (IC50, pM) [pM]",Binder
5.3,347,B1
1.7,68,B2
1.7,72,B3
14.8,610,B4
2.3,127,B5

# Target: T3, cyno TNF-α (cynomolgus monkey, UniProt P79337 77-233)
# T3 sequence (P79337 77-233 limits assumed): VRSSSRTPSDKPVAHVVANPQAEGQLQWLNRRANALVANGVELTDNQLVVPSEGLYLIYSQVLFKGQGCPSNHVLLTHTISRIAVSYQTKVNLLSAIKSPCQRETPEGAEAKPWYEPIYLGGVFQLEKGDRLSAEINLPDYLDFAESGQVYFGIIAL
# Assay: cell-based or functional assay
row,"cyno TNF-α NFkb assay (IC50, pM) [pM]",Binder
1,139,B1
2,329,B2
3,360,B3
4,265,B4
5,176,B5

# Target: T4, human TNF-α (human, UniProt P01375 77-233)
# T4 sequence (P01375 77-233 limits assumed): as the sequence (P79337 77-233 limits assumed) above, with V37L, T44R, N72T, L138R counted along it
# Assay: cell-based or functional assay
Ratio IC50 reference anti-TNF-α mAb/Nb [ratio],"hTNF-α Nfkb assay (IC50, pM) [pM]",Binder
0.83,69,B1
0.91,141,B2
0.62,206,B3
1.43,64,B4
0.67,100,B5

# Target: T1, cyno IL-6
# Assay: cell-based or functional assay
row,"cyno IL-6 TF1 proliferation assay (IC50, pM) [pM]",Binder
1,209,B1
2,61,B2
3,54,B3
4,1710,B4
5,49,B5

# Target: T2, human IL-6
# Assay: cell-based or functional assay
# Remark: another data set of the same source
row,IC50 hIL-6 TF1 proliferation assay [nM],Binder
1,0.347,B1
2,0.0682,B2
3,0.072,B3
4,0.61,B4
5,3.33,B6
6,2.25,B7
7,0.127,B5
8,0.0738,B8

# Target: T3, cyno TNF-α
# Assay: cell-based or functional assay
# Remark: another data set of the same source
row,Ratio IC50 cyno TNFα/hTNFα [ratio],Binder
1,2,B1
2,2.3,B2
3,1.7,B3
4,4.1,B4
5,4,B6
6,3.3,B7
7,1.8,B5
8,3.2,B8

# Target: T4, human TNF-α
# Assay: cell-based or functional assay
# Remark: another data set of the same source
row,IC50 hTNF-α Nfkb assay [nM],Binder
1,0.0685,B1
2,0.141,B2
3,0.206,B3
4,0.0643,B4
5,0.124,B6
6,0.16,B7
7,0.0999,B5
8,0.0858,B8

# Target: T1, cyno IL-6
# Assay: cell-based or functional assay
# Remark: another data set of the same source
row,Ratio IC50 cyno IL-6/hIL-6 [ratio],Binder
1,0.6,B1
2,0.9,B2
3,0.7,B3
4,2.8,B4
5,7.1,B6
6,10,B7
7,0.4,B5
8,1,B8
